Results from publication doi:10.1101/335232 (bioRxiv, 2018).

Molecular target: the molecule itself
Experiment: SEC-MALS

B1: Human apolipoprotein-D (apoD) from breast cyst fluid (natural protein, UniProt P05090 21-189, looked up)
chain: QAFHLGKCPNPPVQENFDVNKYLGRWYEIEKIPTTFENGRCIQANYSLMENGKIKVLNQELRADGTVNQIEGEATPVNLTEPAKLEVKFSWFMPSAPYWILATDYENYALVYSCTCIIQLFHVDFAWILARNPNLPPETVDSLKNILTSNNIDVKKMTVTDQVNCPKLS
modifications: N-linked glycosylation at N45 and N78 (mature numbering)
stoichiometry N: 4
